Data published in patent publication US12703750 (NORTHWESTERN UNIVERSITY, dated 2026).
Numbering of substitutions follows the chain as printed. Names may count otherwise.

Experiments:
Human IL13Rα2 [1] = target: T1, Human IL13Rα2 (human, UniProt Q14627 27-343, limits assumed); assay: SPR Biacore T200, purified IgG Fc-captured, IL13Rα2 as analyte
T1 construct: also called human recombinant IL13Rα2; Human IL13Ra2
T1 sequence (looked up): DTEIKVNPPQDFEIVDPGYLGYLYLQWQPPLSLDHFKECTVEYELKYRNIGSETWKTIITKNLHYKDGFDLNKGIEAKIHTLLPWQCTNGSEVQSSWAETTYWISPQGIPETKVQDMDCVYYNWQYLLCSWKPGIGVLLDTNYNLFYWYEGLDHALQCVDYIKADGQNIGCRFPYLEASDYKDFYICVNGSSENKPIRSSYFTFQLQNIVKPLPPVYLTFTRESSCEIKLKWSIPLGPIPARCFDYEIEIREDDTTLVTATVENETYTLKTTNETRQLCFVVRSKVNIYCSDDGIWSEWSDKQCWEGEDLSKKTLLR

Human IL13Rα2 [2] = target: T1, Human IL13Rα2; assay: SPR Biacore T200, antibody captured, IL13Rα2 analyte 0.9375-60 nM
Human IL13Rα2 [3] = target: T1, Human IL13Rα2; assay: plate ELISA on human IL13Rα2, OD405, N=4 [continued) B]
Human IL13Rα2 [4] = target: T1, Human IL13Rα2; assay: plate ELISA on human recombinant IL13Rα2, OD405, N=4
Human IL13Rα2 [5] = target: T1, Human IL13Rα2; assay: plate ELISA on human recombinant IL13Rα2, OD405, N=3
Human IL13Rα2 [6] = target: T1, Human IL13Rα2; assay: SPR Biacore 8K affinity ranking, antibody supernatant Fc-captured, 100 nM IL13Rα2 analyte
Human IL13Rα2 [7] = target: T1, Human IL13Rα2; assay: SPR Biacore T200, 25 C, antibody captured on Protein A chip, IL13Ra2 analyte 0.625-80 nM
Human IL13Rα2 [8] = target: T1, Human IL13Rα2; assay: SPR Biacore T200, antibody Fc-captured, IL13Rα2 as analyte

B1: Humanized antibody VH1 + VL1 (antibody, human IgG1, kappa, V domains shown)
VH: QVQLVQSGAEVKKPGSSVKVSCKASGYTFSNYLMNWVRQAPGQGLEWMGRIDPYDGDIDYNQNFKDRVTITADKSTSTAYMELSSLRSEDTAVYYCARGYGTAYGVDYWGQGTLVTVSS
VL: DIVMTQSPDSLAVSLGERATINCRASESVDNYGISFMNWYQQKPGQPPKLLIYAASRQGSGVPDRFSGSGSGTDFTLTISSLQAEDVAVYYCQQSKEVPWTFGGGTKLEIKR
notes: also called Humanized VH1-VL1; U3621EI120 VH1+VL1
Kd (Human IL13Rα2 [1]): 0.283 nM
koff (Human IL13Rα2 [1]): 0.000191 s⁻¹
kon (Human IL13Rα2 [1]): 676000 M⁻¹ s⁻¹
Kd (Human IL13Rα2 [2]): 0.257 nM
koff (Human IL13Rα2 [2]): 0.00019 s⁻¹
kon (Human IL13Rα2 [2]): 740000 M⁻¹ s⁻¹
EC50 (read off the curve) (Human IL13Rα2 [3]): ~0.05 µg/mL
EC50 (read off the curve) (Human IL13Rα2 [4]): ~0.02 µg/mL
EC50 (read off the curve) (Human IL13Rα2 [5]): ~0.02 µg/mL
Kd (Human IL13Rα2 [6]): 0.768 nM
koff (Human IL13Rα2 [6]): 0.000329 s⁻¹
kon (Human IL13Rα2 [6]): 429000 M⁻¹ s⁻¹

B2: Ab Vh1-VL1W100F (antibody, human IgG1, kappa, V domains shown)
VH: B1 VH
VL: B1 VL with W100F
notes: also called single mutant W100F
EC50 (read off the curve) (Human IL13Rα2 [3]): ~0.03 µg/mL
EC50 (read off the curve) (Human IL13Rα2 [4]): ~0.03 µg/mL
Kd (Human IL13Rα2 [7]): 0.326 nM
koff (Human IL13Rα2 [7]): 0.000334 s⁻¹
kon (Human IL13Rα2 [7]): 1.03e+06 M⁻¹ s⁻¹

B3: Ab Vh1G56A-VL1W100F (antibody, human IgG1, kappa, V domains shown)
VH: B1 VH with G56A
VL: B1 VL with W100F
notes: also called double mutant
EC50 (read off the curve) (Human IL13Rα2 [3]): ~0.03 µg/mL
Kd (Human IL13Rα2 [7]): 0.277 nM
koff (Human IL13Rα2 [7]): 0.000284 s⁻¹
kon (Human IL13Rα2 [7]): 1.02e+06 M⁻¹ s⁻¹

B4: Humanized antibody VH1 D52E-VL1 (antibody, human IgG1, kappa, V domains shown)
VH: B1 VH with D52E
VL: B1 VL
notes: also called VH1 MD52E-VL1
EC50 (read off the curve) (Human IL13Rα2 [4]): ~0.04 µg/mL

B5: Humanized antibody VH1 M34A-VL1 (antibody, human IgG1, kappa, V domains shown)
VH: B1 VH with M34A
VL: B1 VL
notes: Antibody purified on protein A
EC50 (read off the curve) (Human IL13Rα2 [4]): ~0.03 µg/mL

B6: Humanized antibody VH1(G56A) + VL1 (antibody, human IgG1, kappa, V domains shown)
VH: B1 VH with G56A
VL: B1 VL
notes: also called VHG56A-VL1; Humanized VHG56A-VL1
Kd (Human IL13Rα2 [2]): 0.215 nM
koff (Human IL13Rα2 [2]): 0.000156 s⁻¹
kon (Human IL13Rα2 [2]): 727000 M⁻¹ s⁻¹
EC50 (read off the curve) (Human IL13Rα2 [5]): ~0.02 µg/mL

B7: Humanized antibody VH1-VL1 M37A (antibody, human IgG1, kappa, V domains shown)
VH: B1 VH
VL: B1 VL with M37A
binding result (Human IL13Rα2 [4]): binds

B8: Humanized antibody VH1-VL1 Q58E (antibody, human IgG1, kappa, V domains shown)
VH: B1 VH
VL: B1 VL with Q58E
binding result (Human IL13Rα2 [4]): binds

B9: Humanized antibody VH1-VL1 Q94E (antibody, human IgG1, kappa, V domains shown)
VH: B1 VH
VL: B1 VL with Q94E
EC50 (read off the curve) (Human IL13Rα2 [4]): ~0.01 µg/mL

B10: Humanized antibody VH2 + VL1 (antibody, human IgG1, kappa, V domains shown)
VH: B1 VH with S16A, G44R, A72R, K74T, T76A
VL: B1 VL
Kd (Human IL13Rα2 [6]): 0.704 nM
koff (Human IL13Rα2 [6]): 0.000417 s⁻¹
kon (Human IL13Rα2 [6]): 593000 M⁻¹ s⁻¹

B11: Humanized antibody VH3 + VL1 (antibody, human IgG1, kappa, V domains shown)
VH: B1 VH with S16A, I70M, A72R, K74T, A79V
VL: B1 VL
Kd (Human IL13Rα2 [6]): 0.661 nM
koff (Human IL13Rα2 [6]): 0.000595 s⁻¹
kon (Human IL13Rα2 [6]): 901000 M⁻¹ s⁻¹

B12: Humanized antibody VH4 + VL1 (antibody, human IgG1, kappa, V domains shown)
VH: B1 VH with S16A, P41T, A72R, D73N, K74T, T76I
VL: B1 VL
Kd (Human IL13Rα2 [6]): 0.727 nM
koff (Human IL13Rα2 [6]): 0.000424 s⁻¹
kon (Human IL13Rα2 [6]): 583000 M⁻¹ s⁻¹

B13: Chimeric antibody (VH and VL of murine Ab clone 47 in human constant regions) (antibody, V domains shown)
VH: QVQLQQPGAELVRPGASVKLSCKASGYTFSNYLMNWVKQRPEQDLDWIGRIDPYDGDIDYNQNFKDKAILTVDKSSSTAYMQLSSLTSEDSAVYYCARGYGTAYGVDYWGQGTSVTVSS
VL: not shown
notes: Full-length IgG, murine variable regions with human constant regions; also called chimeric IgG; Chimeric Ab
Kd (Human IL13Rα2 [1]): 1.45 nM
koff (Human IL13Rα2 [1]): 0.000477 s⁻¹
kon (Human IL13Rα2 [1]): 330000 M⁻¹ s⁻¹
EC50 (read off the curve) (Human IL13Rα2 [5]): ~0.03 µg/mL
Kd (Human IL13Rα2 [8]): 1.44 nM
koff (Human IL13Rα2 [8]): 0.000523 s⁻¹
kon (Human IL13Rα2 [8]): 363000 M⁻¹ s⁻¹
Kd (Human IL13Rα2 [6]): 1.07 nM
koff (Human IL13Rα2 [6]): 0.000544 s⁻¹
kon (Human IL13Rα2 [6]): 511000 M⁻¹ s⁻¹
